Source: patent US20240218052A1

Target: SARS CoV-2 parental (Wuhan-Hu-1) receptor binding domain (RBD) protein, amino acids 319 to 541 of th (SARS-CoV-2, Wuhan-Hu-1 isolate), P0DTC2
Test: ELISA, antigen coated, chimeric IgG1 titrated, anti-human Fc-HRP
Conditions: remark: other sources report otherwise

Binder	EC50 [nM]
SKD chimeric bovine-human IgG1 (ultralong CDR3) (antibody) VH: QVQLRESGPSLVKPSQTLSLTCTASGFSLSDKAVGWVRQAPGKALEWLGSIDTGGNTGYNPGLKSRLSITKDNSKSQVSLSVSSVTTEDSATYYCTTVHQRTSEKRSCPGGSSRRYPSGASCDVSGGACACYVSNCRGVLCPTLNEIVAYTYEWHVDAWGQGLLVTVSS VL: QAVLNQPSSVSGSLGQRVSITCSGSSSNVGNGYVSWYQLIPGSAPRTLIYGDTSRASGVPDRFSGSRSGNTATLTISSLQAEDEADYFCASAEDSSSNAVFGSGTTLTVL	0.19
SKM chimeric bovine-human IgG1 (ultralong CDR3) (antibody) VH: QVQLRESGPSLVKPSQTLSLTCTASGFSLSDKAVGWVRQAPGKALEWLGSIDTGGNTGYNPGLKSRLSITKDNSKSQVSLSVSSVTTEDSATYYCTTVHQETLRSCPDGYIDNSGCTADWGCAALDCWRRRFGYHSTDPSHYTGATYIYTYSLHIDAWGQGLLVTVSS VL: QAVLNQPSSVSGSLGQRVSITCSGSSSNVGNGYVSWYQLIPGSAPRTLIYGDTSRASGVPDRFSGSRSGNTATLTISSLQAEDEADYFCASAEDSSSNAVFGSGTTLTVL	0.24
